Columns and labels:
Assay in all cases: ProteOn SPR binding of 39S to captured chimeric Her2 variants
[1] = molecular target: T1, chimeric human/mouse Her2 variants (Mus musculus, UniProt P70424, A197S/A354V/A504E/D184L/D202G/D360A/D439N/E308D/E418D/E503D/E575V/E586V/E640D/F420L/G218R/G341R/G353E/G389N/G498A/G506V/G558A/H204R/H397Q/H452S/I215S/I220V/I273V/I357V/I623A/K394Q/K549Q/K559R/L174F/L284P/L507G/M185I/N203S/N319H/N385D/N479H/N513H/P182L/P194H/P210S/P318L/Q421P/R175H/R231P/R430Q/R471H/R557N/R641K/S223G/S387A/S453W/S497T/S514Q/S573G/S580P/S594P/S595P/S596F/T199M/T222A/T299A/V173I/V183T/V390T/V511A/W548L/Y578F/Y617F); conditions: variant KO_I, swapped human HER2 amino acids 1-145; apparent affinity, variant captured on chip
T1 construct: His tag; made in house; host or cells: HEK293F (transient, pEBNA vector; captured from culture supernatant)
From the text: (§1) The domain II of human HER2 was identified as the epitope of 39S by swapping domains between human and mouse Her2 molecules. Mouse Her2 was chosen as the chimeric partner because it is not recognized by 39S, but shares 85% sequence identity with human HER2. Chimeric variants targeting each domain of HER2 were constructed (see method below) as listed in Table 4, including four knock-out (KO, loss-of-function) variants replacing domain I, II, III, or IV of human HER2 with the mouse counterpart, and one knock-in (KI, gain-of-function) variant grafting the domain II of human HER2 into mouse Her2 molecule. The chimeric variant nomenclature denotes types of variants (KO/KI) and the number of domains swapped. The binding profiles of 39S to these variants were characterized using a SPR based instrument ProteOn™ by capturing variants on sensor surfaces using anti-human and mouse Her2 polyclonal antibodies (see method below). The expression of the variants was monitored by anti-His polyclonal antibody using ProteOn™. […] Therefore, the domain II (amino acid 146-310) of human HER2 was identified as the epitope-containing domain of 39S by both loss-of-function and gain-of-function variants.
(§2) We further refined the epitope of 39S and identified the region of amino acid 192-208 in domain II as the critical epitope region. […] Seven knock-out variants were generated by replacing each of the following human HER2 regions with the mouse counterparts, including amino acids 146-208, 159-162, 171-187, 192-208, 250-261, 276-285, and 295-296. In addition, one knock-in variant was constructed by grafting the region of amino acid 192-208 of human HER2 to the mouse molecule. The variant nomenclature denotes types of variants (KO/KI) and the swapped regions with amino acid numbering. All variants had detectable expression levels by anti-His polyclonal antibody (Table 4). […] The binding of 39S was not impacted when substituting any other regions of human HER2 with mouse amino acids (KO_159-162, KO_171-187, KO_250-261, KO_276-285, and KO_295-296). […] Taken together, the region of amino acid 192-208 in domain II of human HER2 was identified as the functional epitope of 39S.
(§3) The variant nomenclature denotes types of variants (KO/KI) and the swapped regions with amino acid numbering. Amino acid positions were denoted basing on the numbering scheme of mature human HER2 sequences without its signal peptide. The expression levels of all variants were monitored by an anti-His polyclonal antibody. The binding profiles of 39S to these variants were characterized using a SPR based instrument ProteOn™ by capturing variants on sensor surfaces using anti-human and mouse Her2 polyclonal antibodies.
(§4) Construction and expression of chimeric human/mouse Her2 variants were constructed as follows. Briefly, DNAs encoding chimeric human/mouse Her2 variants with a His tag were assembled and amplified by overlapping PCR using human and mouse Her2 plasmids as templates (MedImmune). The assembled DNAs were cloned into the mammalian expression vector pEBNA (MedImmune). HEK293F cells were then transiently transfected with the various constructs using 293fectin and standard protocols according to the manufacturer's instructions (Invitrogen).
(§5) The binding characteristics of 39S to chimeric human/mouse variants were studied using a ProteOn™ XPR36 instrument (BioRad). Standard amine coupling was used to immobilize an anti-human or mouse Her2 polyclonal antibody (R&D System) in 10 mM sodium acetate (pH 5.0) to the surface of a GLC biosensor chip at ˜5000 resonance units (RU) for each channel. The chimeric proteins in cell culture supernatant were injected and captured by anti-human or mouse polyclonal antibodies onto the GLC surface with a ˜200RU response. Anti-HER2 mAb 39S was diluted in phosphate-buffered saline (PBS) (pH 7.4) with 0.005% Tween-20 from 10 nM to 0.625 nM (1:2 dilution), and injected at 100 μL/min for 180 sec with a 600-second dissociation time. […]

[2] = molecular target: T2, chimeric human/mouse Her2 variants (Homo sapiens, UniProt P04626, G201D/H193P/M198T/R203H/S196A/S202N/S209P); conditions: variant KO_171-187
T2 construct: His tag; made in house; host or cells: HEK293F (transient, pEBNA vector; captured from culture supernatant)
From the text: as §1, §2, §3, §4, §5

[3] = molecular target: T3, chimeric human/mouse Her2 variants (Homo sapiens, UniProt P04626, A298T/D307E); conditions: variant KO_276-285
T3 construct: His tag; made in house; host or cells: HEK293F (transient, pEBNA vector; captured from culture supernatant)
From the text: as §1, §2, §3, §4, §5

[4] = molecular target: T4, chimeric human/mouse Her2 variants (Mus musculus, UniProt P70424, G218R/I215S/I220V/R231P/S223G/T222A); conditions: variant KI_192-208, human amino acids 192-208 grafted into mouse Her2; read-out: The binding affinity of 39S (KD)
T4 construct: His tag; made in house; host or cells: HEK293F (transient, pEBNA vector; captured from culture supernatant)
From the text: as §1, §2, §3, §4, §5

[5] = molecular target: T5, chimeric human/mouse Her2 variants (Homo sapiens, UniProt P04626, P283L/V272I); conditions: variant KO_250-261
T5 construct: His tag; made in house; host or cells: HEK293F (transient, pEBNA vector; captured from culture supernatant)
From the text: as §1, §2, §3, §4, §5

[6] = molecular target: T6, chimeric human/mouse Her2 variants (Homo sapiens, UniProt P04626, A221T/F173L/G201D/G222S/H174R/H193P/I172V/I184M/L181P/L183D/M198T/P230R/R203H/R217G/S196A/S202N/S209P/S214I/T182V/V219I); conditions: variant KO_146-208
T6 construct: His tag; made in house; host or cells: HEK293F (transient, pEBNA vector; captured from culture supernatant)
From the text: as §1, §2, §3, §4, §5

[7] = molecular target: T7, chimeric human/mouse Her2 variants (Homo sapiens, UniProt P04626, H318N/L317P); conditions: variant KO_295-296
T7 construct: His tag; made in house; host or cells: HEK293F (transient, pEBNA vector; captured from culture supernatant)
From the text: as §1, §2, §3, §4, §5

[8] = molecular target: T8, chimeric human/mouse Her2 variants (Homo sapiens, UniProt P04626, I184M/L181P/L183D/T182V); conditions: variant KO_159-162
T8 construct: His tag; made in house; host or cells: HEK293F (transient, pEBNA vector; captured from culture supernatant)
From the text: as §1, §2, §3, §4, §5

B1: 39S: lead optimized monoclonal antibody derived from the 1.39.1 antibody; VH SEQ ID NO:15, VL SEQ ID NO:16 (antibody, V domains shown)
VH: EVQLVESGGGLVKPGGSLRLSCAASGFTFSSYSMSWVRQAPGKGLEWVSSISSSSSYIYYADSVKGRFTISRDNAKNSLYLQMNSLRAEDTAVYYCARGGDAYNYYYFDYWGQGTLVTVSS
VL: DIVMTQTPLSLSVTPGQPASISCKSSQSVFFRSNNKNILAWYLQKPGQPPQLLIYWASSRESGVPDRFSGSGSGTDFTLKISRVEAEDVGVYYCQQYFGSPFTFGPGTKVDIK
- Kd [1]: 0.095 nM
- The binding affinity of 39S (KD) [1]: retained binding
- The binding affinity of 39S (KD) [2]: not impacted
- The binding affinity of 39S (KD) [3]: not impacted
- Kd [4]: 0.072 nM
- The binding affinity of 39S (KD) [5]: not impacted
- The binding affinity of 39S (KD) [6]: did not bind and No
- The binding affinity of 39S (KD) [7]: not impacted
- The binding affinity of 39S (KD) [8]: not impacted
